Measurements as given in the RNAGym collection of RNA variant scans (doi:10.1073/pnas.2313332121).
This sample holds only a part of the variants without activity.

B1: TPR 5TU (parent)
chain: GGAUCUUCUCGAUCUAACAAAAAAGACAAAUCUGCCACAAAGCUUGAGAGCAUCUUCGGAUGCAGAGGCGGCAGCCUUCGGUGGCGCGAUAGCGCCAACGUUCUCAACUAUGACACGCAAAACGCGUGCUCCGUUGAAUGGAGUUUAUCAUG

Variants of: B1
Assay: polymerase ribozyme fitness, log enrichment relative to wild type (log ratio); higher = more active; in vitro selection for triplet polymerase activity
Summary of the method: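 Only genotypes with ≥10 input reads and ≥1 read per output were kept after Illumina sequencing of input and output libraries. These libraries were PCR-built, transcribed mutants of each subunit of a heterodimeric triplet polymerase ribozyme, each put through one triplicate in vitro selection round with frozen incubation at −7 °C, gel excision of extended constructs, streptavidin-bead capture and RT-PCR. Fitness is a logarithmic ratio of genotype enrichment to wild-type enrichment, from inverse-variance-weighted replicate averages, with the logarithm in base 2.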

| Variant | polymerase ribozyme fitness (log ratio) |
| --- | --- |
| C27G C75G C93A C103G U134A | ≤ -4.2 |
| G25A A30G A41U G50A C87U | ≤ -4.2 |
| C27G C32G C36G A73G C93G U135A | -4.18 |
| A26U A49C | ≤ -4.2 |
| G25U A30G C51A C105U G133C | ≤ -4.2 |
| C27U C85A A91U G143A | ≤ -4.2 |
| A26C C35U G88U C96G C108U G143A | ≤ -4.2 |
| C27U G81U C85U | -2.15 |
| G25A C35U G84A C87A A91U C118U A142G | ≤ -4.2 |
| A26U C36A G58C A89G G94U A138G | ≤ -4.2 |
| A26G A73U C85A U151G | ≤ -4.2 |
| G25C U61A C75G A91G A97U | -4.05 |
| C27U C54U G58A A106G | -0.532 |
| A24U G59U C87U G128A G140U U151C | ≤ -4.2 |
| C27U C51U U53A U101G | -3.98 |
| A24U U56A | 0.265 |
| C27U G50C C87A C105G | ≤ -4.2 |
| A26U G84A C118A | -3.09 |
| A24U G34C C79G C87U A137U | ≤ -4.2 |
| A26G C75A G81A G140A U148C | ≤ -4.2 |
| C27G U45G | -3.87 |
| G25U C36U G67C C85G C87U A89U | ≤ -4.2 |
| A26U C85A | -2.68 |
| G25C G48A C87U A142G | -4.11 |

| Variant | polymerase ribozyme fitness (log ratio) |
| --- | --- |
| A26C A52C | -3.22 |
| A26G A29C G50A U90G | ≤ -4.2 |
| A26C C63U C85A A120U | -3.53 |
| C27U U55A | -0.901 |
| C27A C87U | -3.91 |
| C27U A40C U55A C114U U139G | -3.95 |
| A26G A41C G94A A115C | -3.45 |
| A24U C96U C129G | -3.47 |
| G25C A26U A30U A39U U56G U77A A138U | ≤ -4.2 |
| A24U A37G | -2.41 |
| A26G G83A G88A G94U C149G | -4.19 |
| G25A C54A G84U C114U A115G A121C U145G A150U | ≤ -4.2 |
| A26G G46A G48C C51U G71C C103U A120G C149G | ≤ -4.2 |
| A26C A37U C79U A106U G143C U146A U148C | ≤ -4.2 |
| A26U C75U U148G | ≤ -4.2 |
| G25U A52C C87A U90G A142G | ≤ -4.2 |
| A26G A39G G42C A49G U55A U56A U130A U135G | ≤ -4.2 |
| C27G C51U C54A U78A G94C | ≤ -4.2 |
| A24U A49U C51U G70A C85U G112U C114A A122U U146C | ≤ -4.2 |
| A24U G46C A60C U102G | ≤ -4.2 |
| C27U C76G G84U | ≤ -4.2 |
| A26U U31A G86U A147C | ≤ -4.2 |
| A26U G86U | -3.84 |
| A26G A28U G42C G59C C96G C105G C116U | -4.04 |

| Variant | polymerase ribozyme fitness (log ratio) |
| --- | --- |
| A26C G68C A122C U135C U139G U145G | ≤ -4.2 |
| G25C A40U C87U C93A C95U | ≤ -4.2 |
| A26U C85U C105U | -1.82 |
| A24U G83U G136A U146C A150G | -3.59 |
| C27U G42A G67U C69A G117A A150C | ≤ -4.2 |
| C27A C32U G46A G86U C105A | ≤ -4.2 |
| A24U C27U C36U G58C G83A G112U A121G G124C | ≤ -4.2 |
| G25C A60U C93A C95G A137G | ≤ -4.2 |
| C27U U44A G46A C54A C116G A147U | ≤ -4.2 |
| C27U U55A C99G A138G | ≤ -4.2 |
| G25C C69G C96A C99U C118A | ≤ -4.2 |
| G25U U61G A66C C87U A137G | ≤ -4.2 |
| C27G C35G A64U A73G C79A C85G A91U | ≤ -4.2 |
| G25A C76U C87A A110G A120G | ≤ -4.2 |
| G25U A49G A52U U90G C125G A142U G143C | ≤ -4.2 |
| A24U G48A A49G G50A U55A C123A G136C | ≤ -4.2 |
| A26C U61A A64U C85A A110C | ≤ -4.2 |
| A26C U78A G84A G126C C149G | ≤ -4.2 |
| A26G A37G A40G G58U G65U G74C G88C U101C U151A | ≤ -4.2 |
| C27U C32A A39U C75U A91C A121C G126C | ≤ -4.2 |
| C27U C63U C76U G81C U101G U146G | -3.39 |
| A24U G42C G50U C85G G136A G141A | ≤ -4.2 |
| C27U G141C | -2.54 |
| A24U C72U G84U C118U A142G | -3.98 |

| Variant | polymerase ribozyme fitness (log ratio) |
| --- | --- |
| G25C C54U A73G G84A C85A A89C | ≤ -4.2 |
| A24U A37U C51A C87U A98U G100U | ≤ -4.2 |
| A26U U56A A98G | -1.83 |
| G25C A39U U44C A91G C95U | ≤ -4.2 |
| C27G C35U G74U C118U U130A A137U | ≤ -4.2 |
| A26U U151C | ≤ -4.2 |
| A26C A37G A60U U90A G100C G141A C149U | ≤ -4.2 |
| A26U G59C C103G A106C C132U | ≤ -4.2 |
| G25U A26G G68C A107G U135C | ≤ -4.2 |
| A26U C35A U104G A150C | ≤ -4.2 |
| C27G G84A G136U | ≤ -4.2 |
| C27A C93U C116U G126A A147G | ≤ -4.2 |
| C27A A60U A91U A106U | ≤ -4.2 |
| A24U A41U G62C G70C C85G G152A | ≤ -4.2 |
| A24U C57U C69G G84A C87A A115C | ≤ -4.2 |
| A24U G50U U56G G58U C76U A122G | -4.1 |
| C27U C87U A142U | -3.03 |
| G25C G86A G94U | -3.91 |
| G25C A52C U53A C87U G92C A98G U104G C108G U135G | ≤ -4.2 |
| G25U G48C A52G C54G C57A A60G C96G U101G | ≤ -4.2 |
| C27G A37U U55A U56A G70A G84C C108U | ≤ -4.2 |
| A26U U31G G42C C93G A137G | ≤ -4.2 |
| G25A C51U G92U A119U G124U | -3.78 |
| C27U A30G A52C | ≤ -4.2 |

| Variant | polymerase ribozyme fitness (log ratio) |
| --- | --- |
| C27U G83A C125U U130G U135G | ≤ -4.2 |
| C27G A29C C87G A121U | ≤ -4.2 |
| A26G C27G C87U U148A | ≤ -4.2 |
| A26U A41C U44A G59A G126U G128A A137G | ≤ -4.2 |
| A26C G94A C131U | -1.51 |
| G25U G58U A97C | -2.23 |
| G25U C43A G58C A60C A91G | ≤ -4.2 |
| A26C U53A G58A | -2.74 |
| C27U A47G C93A | -4.19 |
| A24U G84A G94U C96A A121U G126U U135A | -4.1 |
| A24U G86C | -2.81 |
| C27A C54G G67U G84C | ≤ -4.2 |
| G25U A29U G62U C85G A142C | ≤ -4.2 |
| A24U A37U G42C C75G | -3.99 |
| C27A A40G U55A G83C | ≤ -4.2 |
| A26U A73U A91U C96G A137C | ≤ -4.2 |
| C27A A28G C43A G58C C95U C105G | ≤ -4.2 |
| G25U G34U A47C A89G | ≤ -4.2 |
| A26U G46U G58A A73U C85G U111G | ≤ -4.2 |
| C27A U101G | -3.63 |
| G25U C93A A147G | ≤ -4.2 |
| A24U G50C C57U C79G C118G U148C | ≤ -4.2 |
| C27G G141U | -4.04 |
| A26G U53A C85U A91G G133A U139A | ≤ -4.2 |

| Variant | polymerase ribozyme fitness (log ratio) |
| --- | --- |
| A24U G88C U139C U144C | ≤ -4.2 |
| G25A C35U U56A A60C C85A C93U A106C | ≤ -4.2 |
| C27A A119U G133C A137G G140U U144G | ≤ -4.2 |
| C27A A49C U90G U145C | ≤ -4.2 |
| C27A U55A C76U A98G | ≤ -4.2 |
| A24U U56A G62C | -1.06 |
| G25U A41G C93G A113U A150U | ≤ -4.2 |
| A24U C54A G58A G84A A120G G126U | -1.19 |
| A26U C93U G117U A137C | ≤ -4.2 |
| C27G U56G | ≤ -4.2 |
| C27U C75U | -1.25 |
| A24U A97G U151C | ≤ -4.2 |
| A24U C57A A89U C95U C118U G143U | ≤ -4.2 |
| C27G A39G C93G G112A C129G | ≤ -4.2 |
| A26U A40C C76A G92C A121C | ≤ -4.2 |
| A24U U45G G86A | -2.58 |
| A26U C87U | -1.74 |
| A26U C87G | ≤ -4.2 |
| A26U U134A | -3.96 |
| A24U G50U G59A | 0.438 |
| C27A A30C A89G G92A C105U G140U | -3.96 |
| A24U U45A | -3 |
| A26G C76A | -3.95 |
| A26C A52C C85U G117A A142G | -3.88 |

| Variant | polymerase ribozyme fitness (log ratio) |
| --- | --- |
| A26U A49G U101G A120G A147C | ≤ -4.2 |
| C27G A52C U53A A64G C69A U78A C79A C87G G94C C95A A142C | ≤ -4.2 |
| A26C U44G A91U U145C | ≤ -4.2 |
| C27A G50U C57U A60C C116G U146G A147C | ≤ -4.2 |
| C27U C35U A49U C51G U53A G86U U151G | ≤ -4.2 |
| A26C C87U | -1.69 |
| C27G U55A A73G U77A C87A A142U | ≤ -4.2 |
| C27U C57U G94A C95A G143A | ≤ -4.2 |
| A26G G59U | -3.78 |
| A26C A41G A47C C69G G83A C93U G124U | ≤ -4.2 |
| A26U C43G C85G C132U | ≤ -4.2 |
| A26G C27G A40G C57U C85U C118U | -3.9 |
| A26G G42U G48C G50U G84C C87G | ≤ -4.2 |
| A24U G88C C95G C123G | ≤ -4.2 |
| C27U A49C G88A U111G | ≤ -4.2 |
| C27A G58A G84A | ≤ -4.2 |
| G25A A28U A41U A66U G83U U111G C118U | ≤ -4.2 |
| G25U | -1.73 |
| G25C | -2.52 |
| G25A | -1.62 |
| G25U C63G G88C C108U | -3.94 |
| G25U C35U G86C C103U G133U | ≤ -4.2 |
| C27U C118U | -1.44 |
